In patent publication US20170157245A1, “TREATMENT OF GASTRIC CANCER” (OncoMed Pharmaceutlcals, Inc., priority 2014, published 2017):

Key:
[1] = tested on: xenograft tumor models; conditions: Hoey et al., 2009, U.S. Pat. No. 7,750,124; cited from earlier work
[2] = tested on: OMP-STM1 gastric tumor xenografts; assay: Inhibition of OMP-STM1 gastric tumor growth in vivo; conditions: subcutaneous xenograft in NOD/SCID mice, 3 mg/kg weekly intraperitoneally for 4 weeks, given plus anti-mVEGF/anti-mDLL4 bispecific antibody, compared with control, anti-DLL4 and anti-VEGF antibodies
Protocol: FIG. 1. […] OMP-STM1 gastric tumor cells were injected subcutaneously into NOD/SCID mice. Mice were treated with control antibody (-[…]-), anti-hDLL4 antibody 21M18 (demcizumab) plus anti-mDLL4 antibody (-▪-), anti-VEGF antibody bevacizumab plus anti-mVEGF antibody (-⋄-), or anti-VEGF/anti-DLL4 bispecific antibody 219R45-MB-21M83 (305B83) plus anti-mDLL4/anti-mVEGF antibody (-▾-). Data is shown as tumor volume […] over days post-treatment. Antibodies were administered intraperitoneally at a dose of 3 mg/kg once a week. * indicates p<0.05 vs control antibody as assessed by two-way ANOVA.
Single cell suspensions of OMP-STM1 gastric tumor xenografts (50,000 cells) were injected subcutaneously into the flanks of 6-8 week old NOD/SCID mice. Tumors were allowed to grow for 34 days until they reached an average volume of 110 mm^3. The mice were randomized (n=8 per group) and treated with anti-hDLL4 antibody 21M18 (demcizumab) plus anti-mDLL4, anti-hVEGF antibody bevacizumab plus anti-mVEGF, anti-hVEGF/anti-hDLL4 bispecific antibody 219R45-MB-21R83 (305B83) plus an anti-mVEGF/anti-mDLL4 bispecific antibody, or control antibody. Antibodies were dosed at 3 mg/kg weekly by intraperitoneal injection for 4 weeks. Tumor growth was monitored and tumor volumes were measured with electronic calipers at the indicated time points. Data are expressed as mean±S.E.M.

Molecule	frequency of cancer stem cells [1]	tumor growth inhibition [1]	inhibition of OMP-STM1 gastric tumor growth (tumor volume) ([2]; listed as 219R45-MB-21M83, 3 mg/kg)	inhibition of OMP-STM1 gastric tumor growth (tumor volume) ([2]; listed as bispecific anti-VEGF/anti-DLL4 antibody, 3 mg/kg)
demcizumab: anti-DLL4 antibody, demcizumab (also known as OMP-21M18); heavy chain variable region SEQ ID NO:9 (antibody, chains of the INN, looked up, V domains shown) VH: QVQLVQSGAEVKKPGASVKISCKASGYSFTAYYIHWVKQAPGQGLEWIGYISSYNGATNYNQKFKGRVTFTTDTSTSTAYMELRSLRSDDTAVYYCARDYDYDVGMDYWGQGTLVTVSS VL: DIVMTQSPDSLAVSLGERATISCRASESVDNYGISFMKWFQQKPGQPPKLLIYAASNQGSGVPDRFSGSGSGTDFTLTISSLQAEDVAVYYCQQSKEVPWTFGGGTKVEIK	reduce the frequency of cancer stem cells	inhibit tumor growth		
219R45-MB-21R83: anti-hVEGF/anti-hDLL4 bispecific antibody; heavy chains SEQ ID NO:7 and SEQ ID NO:62, two light chains SEQ ID NO:8 (antibody, chains of the INN, looked up, V domains shown) VH: QVQLVQSGAEVKKPGASVKISCKASGYSFTAYYIHWVKQAPGQGLEWIGYISNYNRATNYNQKFKGRVTFTTDTSTSTAYMELRSLRSDDTAVYYCARDYDYDVGMDYWGQGTLVTVSS VL: DIVMTQSPDSLAVSLGERATISCRASESVDNYGISFMKWFQQKPGQPPKLLIYAASNQGSGVPDRFSGSGSGTDFTLTISSLQAEDVAVYYCQQSKEVPWTFGGGTKVEIK VH2: QVQLVQSGAEVKKPGASVKVSCKASGYTFTNYWMHWVRQAPGQGLEWMGDINPSNGRTSYKEKFKRRVTLSVDKSSSTAYMELSSLRSEDTAVYFCTIHYDDKYYPLMDYWGQGTLVTVSS VL2: DIVMTQSPDSLAVSLGERATISCRASESVDNYGISFMKWFQQKPGQPPKLLIYAASNQGSGVPDRFSGSGSGTDFTLTISSLQAEDVAVYYCQQSKEVPWTFGGGTKVEIK			Inhibition of gastric tumor growth in vivo	greater inhibition of OMP-STM1 gastric tumor growth than either anti-DLL4 antibodies alone or anti-VEGF antibodies alone
